Measurements from article PMC9122904, “Insights into the client protein release mechanism of the ATP-independent chaperone Spy” (Nature Communications, 2022).

What was measured:
Test in all cases: BLI; Octet RED96; client biotinylated and loaded on streptavidin sensors; Spy or Spy variant in solution at 0.25, 0.5, 1, 1.5 and 2 μM; 40 mM HEPES, 150 mM NaCl, pH 7.5; Kd calculated as koff/kon
Conditions in all cases: both partners purified
Spy D26K H65D = target: T1, Spy D26K H65D (UniProt P77754 24-161, D26K | H65D)
T1 construct: source: E. coli BL21 (DE3), purified (Ni-NTA, cation exchange, SEC); not shown: His6, N-terminal, cleaved; SUMO, N-terminal, cleaved
T1 sequence (looked up): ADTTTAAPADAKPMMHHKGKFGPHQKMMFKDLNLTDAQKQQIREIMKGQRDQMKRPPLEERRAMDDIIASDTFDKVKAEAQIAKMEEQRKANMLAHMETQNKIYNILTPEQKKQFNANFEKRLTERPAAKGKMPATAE
Outline: (§1)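 Client proteins were biotinylated with EZ-link NHS-biotin at a 1:1 molar ratio, loaded onto streptavidin sensors, and measured by biolayer interferometry on an Octet RED96. The loaded sensors were dipped into 40 mM HEPES, 150 mM NaCl, pH 7.5 holding the analyte protein at 0.25, 0.5, 1, 1.5 or 2 μM, then moved to buffer without it. Fitting the wavelength-shift association and dissociation curves in SigmaPlot 12.0 gave the observed association rate and koff, kon was taken from the observed rate plotted against analyte concentration, and Kd was calculated as koff/kon.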

Spy_(K121D R122D) = target: T2, Spy_(K121D R122D) (UniProt P77754 24-161, K121D | R122D)
T2 construct: source: E. coli BL21 (DE3), purified (Ni-NTA, cation exchange, SEC); not shown: His6, N-terminal, cleaved; SUMO, N-terminal, cleaved
T2 sequence (looked up): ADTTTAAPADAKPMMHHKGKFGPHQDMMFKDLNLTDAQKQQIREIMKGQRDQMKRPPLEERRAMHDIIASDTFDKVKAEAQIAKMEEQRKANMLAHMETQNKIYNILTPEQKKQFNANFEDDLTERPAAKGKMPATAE
Outline: as §1

Spy_(D26K R61D R62D) = target: T3, Spy_(D26K R61D R62D) (UniProt P77754 24-161, D26K | R61D | R62D)
T3 construct: source: E. coli BL21 (DE3), purified (Ni-NTA, cation exchange, SEC); not shown: His6, N-terminal, cleaved; SUMO, N-terminal, cleaved
T3 sequence (looked up): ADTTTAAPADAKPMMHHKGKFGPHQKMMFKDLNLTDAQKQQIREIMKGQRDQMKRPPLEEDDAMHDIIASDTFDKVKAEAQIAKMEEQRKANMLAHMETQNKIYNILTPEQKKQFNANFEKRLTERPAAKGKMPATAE
Outline: as §1

Spy H65D = target: T4, Spy H65D (UniProt P77754 24-161, H65D)
T4 construct: source: E. coli BL21 (DE3), purified (Ni-NTA, cation exchange, SEC); not shown: His6, N-terminal, cleaved; SUMO, N-terminal, cleaved
T4 sequence (looked up): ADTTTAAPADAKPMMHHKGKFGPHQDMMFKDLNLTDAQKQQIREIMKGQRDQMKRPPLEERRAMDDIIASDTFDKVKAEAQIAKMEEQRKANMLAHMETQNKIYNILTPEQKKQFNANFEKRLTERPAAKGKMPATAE
Outline: as §1

Spy D26K R50D = target: T5, Spy D26K R50D (UniProt P77754 24-161, D26K | R50D)
T5 construct: source: E. coli BL21 (DE3), purified (Ni-NTA, cation exchange, SEC); not shown: His6, N-terminal, cleaved; SUMO, N-terminal, cleaved
T5 sequence (looked up): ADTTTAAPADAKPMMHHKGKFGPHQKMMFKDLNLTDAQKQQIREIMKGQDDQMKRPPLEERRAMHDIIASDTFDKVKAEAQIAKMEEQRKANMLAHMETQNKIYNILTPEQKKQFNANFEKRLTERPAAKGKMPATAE
Outline: as §1

Spy D26R = target: T6, Spy D26R (UniProt P77754 24-161, D26R)
T6 construct: source: E. coli BL21 (DE3), purified (Ni-NTA, cation exchange, SEC); not shown: His6, N-terminal, cleaved; SUMO, N-terminal, cleaved
T6 sequence (looked up): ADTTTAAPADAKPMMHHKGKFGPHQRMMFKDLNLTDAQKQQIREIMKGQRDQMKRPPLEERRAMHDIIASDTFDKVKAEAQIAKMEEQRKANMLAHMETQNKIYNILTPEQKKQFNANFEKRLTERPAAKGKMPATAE

Spy D26K = target: T7, Spy D26K (UniProt P77754 24-161, D26K)
T7 construct: source: E. coli BL21 (DE3), purified (Ni-NTA, cation exchange, SEC); not shown: His6, N-terminal, cleaved; SUMO, N-terminal, cleaved
T7 sequence (looked up): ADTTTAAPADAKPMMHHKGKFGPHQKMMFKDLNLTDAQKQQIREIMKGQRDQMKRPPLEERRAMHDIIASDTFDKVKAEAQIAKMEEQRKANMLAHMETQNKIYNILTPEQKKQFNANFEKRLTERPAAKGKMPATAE

Spy D26A = target: T8, Spy D26A (UniProt P77754 24-161, D26A)
T8 construct: source: E. coli BL21 (DE3), purified (Ni-NTA, cation exchange, SEC); not shown: His6, N-terminal, cleaved; SUMO, N-terminal, cleaved
T8 sequence (looked up): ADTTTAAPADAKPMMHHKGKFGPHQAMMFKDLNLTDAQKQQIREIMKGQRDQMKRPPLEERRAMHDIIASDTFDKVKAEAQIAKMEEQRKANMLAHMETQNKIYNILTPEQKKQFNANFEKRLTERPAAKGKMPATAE

Spy D26E = target: T9, Spy D26E (UniProt P77754 24-161, D26E)
T9 construct: source: E. coli BL21 (DE3), purified (Ni-NTA, cation exchange, SEC); not shown: His6, N-terminal, cleaved; SUMO, N-terminal, cleaved
T9 sequence (looked up): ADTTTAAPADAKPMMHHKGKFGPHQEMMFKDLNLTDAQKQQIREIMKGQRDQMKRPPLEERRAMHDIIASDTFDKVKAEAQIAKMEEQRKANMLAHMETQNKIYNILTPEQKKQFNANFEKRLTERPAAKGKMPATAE

koff (Spy D26K H65D): 0.284 s⁻¹ | koff (Spy_(K121D R122D)): 0.46 s⁻¹ | koff (Spy_(D26K R61D R62D)): 0.475 s⁻¹ | koff (Spy H65D): 0.427 s⁻¹ | koff (Spy D26K R50D): 0.147 s⁻¹ | Kd (Spy D26R): 0.286 µM | Kd (Spy D26K): 0.257 µM | Kd (Spy D26A): 0.274 µM | Kd (Spy D26E): 0.637 µM
B1: Im7 H40W L53A I54A (natural protein)
chain: MELKNSISDYTEAEFVQLLKEIEKENVAATDDVLDVLLEWFVKITEHPDGTDAAYYPSDNRDDSPEGIVKEIKEWRAANGKPGFKQG
modifications: biotin (EZ-link NHS-biotin, 1:1 molar ratio of biotin to protein)
notes: Im7 (colicin E7 immunity protein) with H40W L53A I54A; Spy was made with an N-terminal His6-SUMO tag that was cleaved; also called Im7AAW; partially folded client; source: purified by a similar procedure to Spy
